The stoichiometry N is the number of molecules, sites or subunits per partner or assembly.

These results are taken from PMC9897478.

The experiment has as its target Desulfofustis deltaproteobacterium ligand-gated ion channel (DeCLIC) (Desulfofustis deltaproteobacterium). As to the kind of experiment: cryo-EM structure; DeCLIC in DDM detergent micelles, pH 7, two datasets: with 10 mM Ca2+ and Ca2+-free (chelated); C5 symmetry; homopentamer.

In turn, “Desulfofustis deltaproteobacterium ligand-gated ion channel (DeCLIC) (natural protein)” came in with a stoichiometry N of 5.
